Molecular target: biotinylated labeled human GPC3 protein (produced in-house) (human, UniProt P51654 25-559, limits assumed, biotinylated (Dojindo, Cat. No. LK03); sites not stated)
Experiment: ELISA, biotinylated human GPC3 protein

Binder | OD450 at 0.0008 nM [OD450] | OD450 at 0.004 nM [OD450] | OD450 at 0.02 nM [OD450] | OD450 at 0.11 nM [OD450] | OD450 at 0.53 nM [OD450] | OD450 at 2.67 nM [OD450] | OD450 at 13.33 nM [OD450] | OD450 at 66.66 nM [OD450]
hAb006LH1L1a (antibody, human IgG1, V domains shown, Humanized F3.38.7; VH H1 + VL L1a; expressed as human IgG1) VH: EVQLVQSGAEVKKPGSSVKVSCKASGYTFSDYEIHWVRQAPGQGLEWMGAIDPKTGNTAYNQKFMGRVTITADKSTSTAYMELSSLRSEDTAVYYCTRYFSFAYWGQGTLVTVSS VL: DIVMTQTPLSLPVTPGEPASISCRSSQTFVHSDGNTYLQWYLQKPGQSPQLLIYKVSNRFSGVPDRFSGSGSGTDFTLKISRVEAEDVGVYYCFQGSHVPYTFGQGTKLEIK | 0.076 | 0.078 | 0.101 | 0.268 | 0.904 | 1.49 | 1.92 | 2.1
hAb007LH1L1a (antibody, human IgG1, V domains shown, Humanized F3.81.19; VH H1 + VL L1a; expressed as human IgG1) VH: EVQLVQSGAEVKKPGSSVKVSCKASGYTFSDYEMHWVRQAPGQGLEWMGTIDPETGNTAYNQKFKGRVTITADKSTSTAYMELSSLRSEDTAVYYCTRPYSLTYWGQGTLVTVSS VL: DIVMTQTPLSLPVTPGEPASISCRSSQSFVHSDGDTYLQWYLQKPGQSPQLLIYKVSNRFSGVPDRFSGSGSGTDFTLKISRVEAEDVGVYYCFQGSHVPYTFGQGTKLEIK | 0.087 | 0.112 | 0.218 | 0.634 | 1.57 | 2.1 | 2.2 | 2.22
hAb006LH2L1a (antibody, human IgG1, V domains shown, Humanized F3.38.7; VH H2 + VL L1a; expressed as human IgG1) VH: EVQLVQSGAEVKKPGSSVKVSCKASGYTFTDYEIHWVRQAPGQGLEWMGAIDPKTGNTAYNQKFMGRVTITADKSTSTAYMELSSLRSEDTAVYYCTRYFSFAYWGQGTLVTVSS VL: DIVMTQTPLSLPVTPGEPASISCRSSQTFVHSDGNTYLQWYLQKPGQSPQLLIYKVSNRFSGVPDRFSGSGSGTDFTLKISRVEAEDVGVYYCFQGSHVPYTFGQGTKLEIK | 0.073 | 0.072 | 0.076 | 0.139 | 0.584 | 1.37 | 1.74 | 1.92
hAb007LH2L1a (antibody, human IgG1, V domains shown, Humanized F3.81.19; VH H2 + VL L1a; expressed as human IgG1) VH: EVQLVQSGAEVKKPGSSVKVSCKASGYTFTDYEMHWVRQAPGQGLEWMGTIDPETGNTAYNQKFKGRVTITADKSTSTAYMELSSLRSEDTAVYYCTRPYSLTYWGQGTLVTVSS VL: DIVMTQTPLSLPVTPGEPASISCRSSQSFVHSDGDTYLQWYLQKPGQSPQLLIYKVSNRFSGVPDRFSGSGSGTDFTLKISRVEAEDVGVYYCFQGSHVPYTFGQGTKLEIK | 0.092 | 0.099 | 0.173 | 0.491 | 1.29 | 1.95 | 2.12 | 2.09
hAb007LH3L1a (antibody, human IgG1, V domains shown, Humanized F3.81.19; VH H3 + VL L1a; expressed as human IgG1) VH: EVQLVQSGAEVKKPGSSVKVSCKASGYTFTDYEMHWVRQAPGQGLEWMGTIDPETGNTAYNQKFKGRVTLTADKSTSTAYMELSSLRSEDTAVYYCTRPYSLTYWGQGTLVTVSS VL: DIVMTQTPLSLPVTPGEPASISCRSSQSFVHSDGDTYLQWYLQKPGQSPQLLIYKVSNRFSGVPDRFSGSGSGTDFTLKISRVEAEDVGVYYCFQGSHVPYTFGQGTKLEIK | 0.083 | 0.088 | 0.14 | 0.353 | 1.04 | 1.78 | 2.04 | 2.03
hAb006LH3L1a (antibody, human IgG1, V domains shown, Humanized F3.38.7; VH H3 + VL L1a; expressed as human IgG1) VH: EVQLVQSGAEVKKPGSSVKVSCKASGYTFTDYEIHWVRQAPGQGLEWMGAIDPKTGNTAYNQKFMGRVTLTADKSTSTAYMELSSLRSEDTAVYYCTRYFSFAYWGQGTLVTVSS VL: DIVMTQTPLSLPVTPGEPASISCRSSQTFVHSDGNTYLQWYLQKPGQSPQLLIYKVSNRFSGVPDRFSGSGSGTDFTLKISRVEAEDVGVYYCFQGSHVPYTFGQGTKLEIK | 0.076 | 0.072 | 0.087 | 0.207 | 0.909 | 1.48 | 1.83 | 2.07

Molecular target: T1, murine GPC3-his protein (Sino Biological, Cat. No. 50989-M08B) (murine, UniProt Q8CFZ4 25-558)
T1 construct: Bought protein; also called murine GPC3 protein
Experiment: ELISA, coated murine GPC3-His;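 further: antigen coated on plates at 1 µg/mL, test antibody bound for 2 h at 37 °C, detected with HRP-conjugated secondary antibody and TMB substrate after acid stop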

T1 sequence (Q8CFZ4 25-558 limits assumed): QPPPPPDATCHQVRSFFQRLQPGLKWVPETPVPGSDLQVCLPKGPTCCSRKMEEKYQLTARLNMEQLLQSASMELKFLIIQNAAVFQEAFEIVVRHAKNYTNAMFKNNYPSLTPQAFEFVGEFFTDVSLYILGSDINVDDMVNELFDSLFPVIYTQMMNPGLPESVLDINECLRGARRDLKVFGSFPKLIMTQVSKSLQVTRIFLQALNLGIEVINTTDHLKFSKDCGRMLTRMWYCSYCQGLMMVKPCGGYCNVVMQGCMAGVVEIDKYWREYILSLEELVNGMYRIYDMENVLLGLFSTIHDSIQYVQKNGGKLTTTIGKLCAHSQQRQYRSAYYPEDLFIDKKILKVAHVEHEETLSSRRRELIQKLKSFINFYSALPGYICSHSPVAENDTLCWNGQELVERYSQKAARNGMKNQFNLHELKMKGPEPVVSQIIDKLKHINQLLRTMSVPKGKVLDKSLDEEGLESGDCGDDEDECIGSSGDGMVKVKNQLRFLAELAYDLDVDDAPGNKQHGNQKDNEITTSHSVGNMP

Binder | OD450 at 0.0001 nM antibody [OD450 nm] | OD450 at 0.001 nM antibody [OD450 nm] | OD450 at 0.01 nM antibody [OD450 nm] | OD450 at 0.1 nM antibody [OD450 nm] | OD450 at 1 nM antibody [OD450 nm] | OD450 at 10 nM antibody [OD450 nm] | OD450 at 100 nM antibody [OD450 nm]
F1.41.17 human-murine chimeric antibody (antibody, human IgG1, kappa, V domains shown) VH: EVQLVESGGDSVKPGGSLKLSCAASGFTFSSYGMSWVRQTPDKRLEWVATINSGGSYTYYQDSVKGRFTISRDNAKNTLYLQMSSLKSEDTAIYYCVRHHYGSSYDYFDYWGQGTTLTVSS VL: DIVMTQAAPSVPVMPGESVSISCRSSKSLLHSNGNTHLYWFLQRPGQSPQLLIYRMSNLASGVPDRFSGSGSGTAFTLRISRVEAEDVGVYYCMQHLEYPLTFGAGTKLELKR | 0.06 | 0.05 | 0.05 | 0.06 | 0.07 | 0.08 | 0.11
F1.83.6 human-murine chimeric antibody (antibody, human IgG1, kappa, V domains shown) VH: QVQLQQSGPELVKPGASVKISCKASGYAFSSSWMNWVKQRPGKGLEWIGRIYPGDGDTNYNGRFKGKATLTVDKSSSTAYMQLSSLTSEDSAVYFCARGGVFTMALDHWGQGTTLTVSS VL: DIQMTQSPSSLSASLGGKVTITCKASQDINKYIAWYQHKPGKGPRLLIHYTSTLQPGIPSRFSGSGSGRDYSFSISNLEPEDIATYYCLQYDNLFTFGGGTKLEIKR | 0.05 | 0.05 | 0.06 | 0.12 | 0.14 | 0.24 | 0.16
F1.110.24 human-murine chimeric antibody (antibody, human IgG1, kappa, V domains shown) VH: EVKLVESGGGLVQPGGSLKLSCAASGFTFSDFYMYWVRQTPEKRLEWVAFISNGGGSTYYPDTVKGRFTISRDNVKNTLYLQMSRLKSEDTAMYYCARPDTSWFAYWGQGSLVTVSA VL: DIQMTQTTSSLSASLGDRVTISCRASQDIDNYLNWYQQKPDGTVKVLISYTSRLHSGVPSRFSGSGSGTDYSLTISNLEQEDIATYFCQQGNTLPWTFGGGTKLEIKR | 0.05 | 0.05 | 0.05 | 0.12 | 0.32 | 0.53 | 0.3
F1.92.17 human-murine chimeric antibody (antibody, human IgG1, kappa, V domains shown) VH: EVQLQQSGPELVKPGASVKMSCKASGYTFTDYNMHWVRQSHGKSLEWIGYINPNNGDTIYNQNFKGKATLTVNKSSSTAYMELRSLTSEDSAVYYCSRTITYYYSMDYWGPGTSVTVSS VL: QIVLTQSPALMSASPGEKVTMTCSASSSVSYMYWYQQKPRSSPKPWIYLTSNLASGVPARFSGSGSGTSYSLTISSMEAEDAATYYCQQWSSNPLTFGAGTKLELKR | 0.05 | 0.05 | 0.05 | 0.06 | 0.11 | 0.22 | 0.13
F1.42.8 human-murine chimeric antibody (antibody, human IgG1, kappa, V domains shown) VH: HVQLQQPGAELVKPGASVKLSCKASGYTFTSYWMHWVRQRPGQGLEWIEMIHPNSGSTNYNEKFKSKATLTVDKSSSTAYMQLSSLTSEDSAVYYCARGNYNSSLYAMDYWGQGTSVTVSS VL: DIQMTQTTSSLSASLGDRVTISCSASQGISNYLNWYQQKPDGTVKLLIYYASNLHSGVPSRFSGSGSGTAYSLTISNLEPEDIATYYCQQYSILPYTFGGGTKLEIKR | 0.05 | 0.09 | 0.37 | 1.7 | 2.51 | 2.6 | 2.75

Further lines, results first:

OD450 at 0.0001 nM antibody [OD450 nm] | OD450 at 0.001 nM antibody [OD450 nm] | OD450 at 0.01 nM antibody [OD450 nm] | OD450 at 0.1 nM antibody [OD450 nm] | OD450 at 1 nM antibody [OD450 nm] | OD450 at 10 nM antibody [OD450 nm] | OD450 at 100 nM antibody [OD450 nm] | Binder
0.05 | 0.07 | 0.17 | 0.76 | 1.12 | 1.41 | 1.84 | F1.21.8 human-murine chimeric antibody (antibody, human IgG1, kappa, V domains shown) VH: EVQLQQSGPELVKPGASVKISCKTSGFLFTGHYMHWVKSSHGNILDWIGYIYPYNAISFYNQKFKGKATLTVDKSSNTAYMELRSLTSEDSAVYYCARGDYGNYVTAYWGQGTLVTVSA VL: DVLMTQTPLSLPVSLGDQASISCRSSQSIVHSSGNTYLEWYLQKPGQSPKLLIYKVSNRFSGVPDRFSGSGSGTDFTLKISRVEAEDLGVYYCFQGSHLPWTFGGGTKLDIKR
0.05 | 0.05 | 0.06 | 0.14 | 0.46 | 1.2 | 1.24 | F1.2.14 human-murine chimeric antibody (antibody, human IgG1, kappa, V domains shown) VH: RVQLQQSGAELVKPGASVRMSCKASGYTFTAYSIEWMKQNLGKSLEWIGNFRPYNDDTKYNENFKGRATLTVEKSSATVYLELSRLTSDDSAVYYCARSGPTDYFDYWGQGTTLIVSS VL: DIQMTQSPASLSASVGETVTITCRASDNIYSYLAWYQQKQGQSPQLLVYNAKTLAEGVPSRFSGSGSVTQFSLKIISLQPEDFGTYYCQHHFGTPRTFGGGTKLEIKR
0.05 | 0.06 | 0.1 | 0.24 | 0.17 | 0.34 | 0.25 | F1.78.24 human-murine chimeric antibody (antibody, human IgG1, kappa, V domains shown) VH: QVQLQQSGAELVKPGASVKMSCKASGYTFTTYPIEWMKQNHGKSLEWIGNFHPYNDDTNYNVKFKGKATLTVEKSSSTVYLELSRLTSDDSALYYCARRREYYGSFDVWGTGTTVTVSS VL: not shown

Molecular target: T2, monkey GPC3-His protein (monkey)
T2 construct: Bought recombinant protein; also called monkey GPC3 protein
Experiment: ELISA, monkey GPC3-His coated;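 further: Plate-coated antigen at 1 µg/mL, antibody binding 2 h at 37 °C, detected with HRP-labeled secondary antibody and TMB, absorbance at 450 nm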

Binder | OD450 at 0.0001 nM [OD450] | OD450 at 0.001 nM [OD450] | OD450 at 0.01 nM [OD450] | OD450 at 0.1 nM [OD450] | OD450 at 1 nM [OD450] | OD450 at 10 nM [OD450] | OD450 at 100 nM [OD450]
F2.152.3 (antibody, human IgG1, kappa, V domains shown, Human-murine chimeric antibody) VH: EVQLQQSGPELVKPGASVKMSCKASGYTFTDYYMTWVKQSHGKSLEWIGRVNPRNGDTTYNQKFEGRATLTLDKSLSTAFMQLNSLTSEDSAVYYCINSKGHFDYWGQGTTLTVSS VL: DVLMTQTPLSLPVSLGDQASISCRSSQSIVHSNGNTYLEWFLQKPGQSPKSLIYKVSNRFSGVPDRFSGSGSGTDFTLKISRVEAEDLGVYYCFQGSHVPPTFGAGTKLELKR | 0.24 | 0.31 | 0.69 | 1.92 | 2.52 | 2.31 | 2.41

From patent US20260116991A1 (HAINAN SIMCERE ZAIMING PHARMACEUTICAL, published 2026)
